# Source: patent US20260265370A1 (SUZHOU TRANSCENTA THERAPEUTICS, published 2026)
# B1: Rabbit anti-human PD-L1 monoclonal antibody SP263 (antibody, V domains shown)
# VH: QSLEESGGRLVTPGTPLTLTCTASGFSLSNHAISWVRQAPGKGLEWIGTINSDTHTYYATWPKGRFTISKTSSTTVDLKMTSPTTEDTATYFCARRIFSSSNIWGPGTLVTVSS
# VL: AIVMTQTSSPVSAVVGGTVAINCQASQSIYNNNWLSWFQQKPGQPPKLLIYLASTLASGVPSRFKGSGSGTQFTLTISDVVCDDAATYYCIGGESSNNDGIAFGGGTEVVVK
# notes: Commercially available rabbit monoclonal antibody; also called anti-PD-L1 diagnostic antibody SP263
# Molecular target: T1, human PD-L1 (human, UniProt Q9NZQ7 19-290)
# T1 construct: whole, on cells; Endogenous protein in FFPE tumour sections; also called PD-ligand 1
# Assay: IHC on FFPE GC-02-0007 PDX tumour sections, Leica BOND III, membrane staining
# Description: PD-L1 expression status was also assessed to better understand the immune modulation pre- and post Hu18B10-HaLa treatment in GC-02-0007 PDX tumor samples. Immunohistochemistry (IHC) was performed on these 4% neutral buffered formalin fixed paraffin-embedded (FFPE) tumor sections using commercially available Rabbit anti-human PD-L1 monoclonal antibodies (SP263). After deparaffinization and rehydration, all slides were proceeded to antigen retrieval in BOND Epitope Retrieval Solution 2 (Leica, AR9640) for 30 minutes at 97-99° C. Subsequently quenched, blocked with peroxidase inhibitor and incubated with appropriately diluted SP263 (0.2 ug/mL) antibodies for 30 minutes at room temperature (RT). Antibody binding was visualized with BOND Polymer Detection (Leica, DS9800) for 8 minutes on auto-staining Leica BOND III. Sections were finally counterstained with Hematoxylin and mounted with permanent mounting medium.
# T1 sequence (Q9NZQ7 19-290): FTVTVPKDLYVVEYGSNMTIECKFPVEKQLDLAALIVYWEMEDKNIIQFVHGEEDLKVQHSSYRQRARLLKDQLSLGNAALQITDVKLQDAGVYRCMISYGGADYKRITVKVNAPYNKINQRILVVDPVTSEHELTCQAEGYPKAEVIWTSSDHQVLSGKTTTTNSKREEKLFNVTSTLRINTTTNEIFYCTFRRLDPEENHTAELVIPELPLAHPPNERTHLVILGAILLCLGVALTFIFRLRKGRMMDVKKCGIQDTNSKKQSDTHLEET
binder,measurement,value
B1,binding result,binds
